Test results published in patent publication US20100261245.
pKd: −log10 of the molar value.

System: T1, VEGF, P15692-4
T1 sequence: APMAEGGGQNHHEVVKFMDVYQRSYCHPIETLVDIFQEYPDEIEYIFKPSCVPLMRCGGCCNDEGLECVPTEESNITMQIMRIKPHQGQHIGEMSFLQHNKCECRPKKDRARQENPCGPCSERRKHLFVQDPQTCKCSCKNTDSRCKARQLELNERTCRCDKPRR
Assay: SPR
Conditions: BIAcore 2000, VEGF immobilized, aptamer 30-500 nM

Sequence	pKd (2'-OMe at all positions as printed, 5'-PEG 20 kDa (mPEG-SPA via 5' amine), PBS pH 7.4)	pKd (2'-OMe at all positions as printed (Am, Um, Gm, Cm), 5' terminal amine group stated for the PEGylation precursor, PBS pH 7.4 stated for the PEGylated aptamer)
AUGCAGUUUGAGAAGUCGCGCAU [PEGylated anti-VEGF 2'-OMe-RNA aptamer]	7.06	–
AUGCAGUUUGAGAAGUCGCGCAU [anti-VEGF 2'-OMe-RNA aptamer]	–	8.73
